Where a chain is given by its changes, count along the chain named.

This is an account of results in US20230174670A1 (JIANGSU HENGRUI PHARMACEUTICALS, published 2023).

Assay [1] concerns the target T1, human CD25 on cells (human, UniProt P01589 22-272).
T1 sequence (looked up): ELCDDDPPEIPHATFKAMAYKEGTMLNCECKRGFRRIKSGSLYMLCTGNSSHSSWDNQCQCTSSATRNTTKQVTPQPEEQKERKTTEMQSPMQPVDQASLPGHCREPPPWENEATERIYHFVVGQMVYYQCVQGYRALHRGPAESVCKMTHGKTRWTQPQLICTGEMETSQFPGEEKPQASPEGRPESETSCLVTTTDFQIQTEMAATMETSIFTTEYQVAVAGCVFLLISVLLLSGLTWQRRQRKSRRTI
Description: cell-based or functional assay.

Assay [2] has as its target T2, recombinant human CD25-His protein (human, UniProt P01589 22-213).
T2 construct: range 22-213; Purchased from Sino Biological Inc. Printed construct Met1-Cys213 includes the signal peptide
T2 sequence (looked up): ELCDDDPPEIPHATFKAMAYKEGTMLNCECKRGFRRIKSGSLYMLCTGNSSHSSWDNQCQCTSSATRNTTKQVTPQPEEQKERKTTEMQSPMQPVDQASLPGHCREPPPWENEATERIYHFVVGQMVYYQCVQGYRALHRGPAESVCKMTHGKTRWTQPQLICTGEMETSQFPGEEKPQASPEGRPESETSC
Nature of the assay: ELISA, plate coated with human CD25-His.
Description: (§1) The binding activity of the chimeric anti-CD25 antibody and the CD25 recombinant protein was assayed by ELISA. The 96-well plate was coated with human CD25-His/monkey CD25-His at a concentration of 1 g/mL at 50 μL/well. The unbound antigen was washed away with a washing solution (1×PBST). After washing, the plate was blocked with 1% BSA blocking solution prepared in 1×PBST at 37° C. for 1 h. After washing 3 times with the washing solution, the test chimeric antibodies at different dilution concentrations was added and incubated in an incubator at 37° C. for 1 h. After washing 3 times with the washing solution, 100 μL of goat anti-human IgG secondary antibody diluted at 1:5000 was added and incubated in an incubator at 37° C. for 0.5 h. The plate were washed, the TMB color developing solutions A and B were mixed in a 1:1 ratio for color development. After 15 min, the color development reaction was terminated with 1M hydrochloric acid, and the fluorescence value at 450 nm was measured.

In assay [3] the target is T1, human CD25 on cells. Nature of the assay: flow cytometry on SU-DHL-1 cells. Background: In flow cytometry, cells or beads pass a laser one at a time.
Description: Since the lymphoma cell line SU-DHL-1 highly expresses CD25, the binding of chimeric anti-CD25 antibodies to SU-DHL-1 cells was determined by flow cytometry. SU-DHL-1 cells in logarithmic growth phase were selected, collected, washed with PBS, and centrifuged. Each well was plated with 100 μL of 2×10⁵ cells and centrifuged at 400 g for 5 min. The test antibodies at different concentrations were added, incubated on ice for 1 h, washed with PBS, and centrifuged at 400 g for 5 min.
Assay [4] addresses T3, recombinant monkey CD25-His protein (monkey (cynomolgus), UniProt H6WS54 1-213).
T3 construct: range 1-213; also called cynomolgus monkey (Cyno) CD25
T3 sequence: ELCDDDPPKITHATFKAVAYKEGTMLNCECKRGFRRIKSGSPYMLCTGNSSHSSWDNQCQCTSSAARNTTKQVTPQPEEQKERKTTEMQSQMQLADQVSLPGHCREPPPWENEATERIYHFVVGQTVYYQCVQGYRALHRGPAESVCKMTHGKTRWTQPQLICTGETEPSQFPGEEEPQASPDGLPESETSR
Description: ELISA, plate coated with monkey CD25-His. (An ELISA detects its analyte on a solid surface through an enzyme-linked reagent.)
Description: as §1

B1: PR006 (antibody, human IgG1, kappa, V domains shown)
VH: EVQLVQSGAEVKKPGASVKVSCKASGYTFTGHWIEWVRQAPGQGLEWMGEILPGSNKINYNEKFKGRVTFTADTSTSTVYMELSSLRSEDTAVYYCAGGGGPHWPFAFWGQGTLVTVSS
VL: DIVMTQSPDSLAVSLGERATINCRASESVNVHGAHLMHWYQQKPGQPPKLLIYAASILESGVPDRFSGSGSGTDFTLTISSLQAEDVAVYYCQQTIEDPRTFGGGTKVEIKR
As to B1, the “ADCC activity, Multiple of maximum fluorescence value (vs. IgG)” value (shortened to “ADCC activity, Multiple … (vs. IgG)”) with human CD25 on cells [1] is 239 fold.

B2: cAb037 (antibody, human IgG1, V domains shown)
VH: QVRLQQSGPELVKPGASVQMSCKASGYTFTDYYINWVKQRPGQGLEWIAWIFPGNGNTYFNENFKDKATLSVDKFSSTAFMLLSSLTSEDSAVYFCARATYDHGGYWYFDVWGTGTTVTVSS
VL: QIVLSQSPAILSASPGEKVTMTCRASSSVSHIHWYQQKPGSSPKPWIYATSNLASGVPGRFSGSGSGTSYSLTVSRVEAEDAATYYCQHWNSFTFGGGTELELK
notes: also called mAb037/cAb037
Regarding B2, the EC50 (in general, the concentration at which the effect is half-maximal) in assay [2] was determined as 0.165 nM; with human CD25 on cells [3], 0.15 nM; in assay [4], 0.147 nM.

B3: cAb006 (antibody, human IgG1, V domains shown)
VH: QIQLQQSGAELMKPGASVKLSCKATGYTFTGHWIEWVKQRPGHGLEWVGEILPGSNKINYNEKFKGKATFTAETSSNTVYMQLSSLTTEDSAIYYCAGGGGPHWPFAFWGQGSLVTVSA
VL: DIVLTQSPASLTVSLGQRATISCRASESVNVHGAHLMHWYQQKPGQPPKLLIYAASILESGVPARFSGSGSETDFTLNIHPVEEEDAATYFCQQTIEDPRTFGGGTKLEIK
notes: also called mAb006/cAb006
Consider B3, for which the EC50 in assay [2] stood at 0.2 nM; in the assay with human CD25 on cells [3], 0.329 nM; in assay [4], 0.234 nM.

B4: PR031 (antibody, human IgG1, kappa, V domains shown)
VH: EVQLVQSGAEVKKPGASVKVSCKASGYTFTTYDINWMKQHPGKGLEWIGWIYPRDGSTKYNAKFKGKATLTEDTSANTAYMELSSLRSEDTAVYYCARERIYDGSFDYWGQGTTVTVSS
VL: DIVMTQSPDSLAVSLGERATINCKSSQRLFNSRDQKNYLAWYQQKPGQPPKLLIYGASTRESGVPDRFSGSGSGTDFTLTISSLQAEDVAVYYCQNDHIYPLTFGQGTKLEIKR
As for B4, the “ADCC activity, Multiple … (vs. IgG)” value in the assay with human CD25 on cells [1] is 192 fold.

B5: 7G7B6 (antibody, V domains shown)
VH: EVQLVESGGDLVQPRGSLKLSCAASGFTFSSYGMSWVRQTPDKRLELVATINGYGDTTYYPDSVKGRFTISRDNAKNTLYLQMSSLKSEDTAMYFCARDRDYGNSYYYALDYWGQGTSVTVSS
VL: QIVLSQSPAILSASPGERVTMTCRASSSVSFMHWLQQKPGSSPKPWIYATSNLASGVSARFSGSGSGTSYSLTITRVEAEDAATYYCQQWSSNPPAFGGGTKLEIK
For B5, the “ADCC activity, Multiple … (vs. IgG)” value with human CD25 on cells [1] was found to be 13.3 fold.

B6: cAb001 (antibody, V domains shown)
VH: QVTLKESGPGILQPSQTLSLTCSFSGFSLNTFGMGVGWIRQPSGKGLEWLAHIWWDDDKYYNPALKSRLTISKDTSKNQVFLKIANVDTADTVTYYCARITTEVGNYDVWGMGTTVTVSS
VL: EIVLTQSPALMAASPGEKVTITCSVSSGITSNNLHWYQQKSETSPKPWIYGTSNLASGVPIRFSGSGSGTSYSLTISSMEAEDAATYYCQQWSSYPFTFGSGTKLEIK
notes: also called mAb001/cAb001
Turning to B6, the concentration for a half-maximal effect (EC50) stood at 0.228 nM in assay [2], 0.18 nM with human CD25 on cells [3] and 0.399 nM in assay [4].

B7: cAb029 (antibody, human IgG1, V domains shown)
VH: QVTLKESGPGILQPSQTLSLTCSFSGFSLSTFGMGVGWIRQPSGKGLEWLAHIWWDDDEYYNPALKSRLTISKDTSKNQVFLKIANVDTADTATYYCTRIMLTTGYFDVWGTGTTVTVSS
VL: B6 VL with S24T, N32S, I61V, K104R
notes: also called mAb029/cAb029
For the molecule B7, the EC50 in assay [2] worked out at 0.166 nM; with human CD25 on cells [3] it was 0.119 nM; in assay [4], 0.115 nM.

B8: cAb002 (antibody, human IgG1, V domains shown)
VH: QVTLKESGPGILQPSQTLSLTCSFSGFSLSTFGLGVGWIRQPSGKGLEWLAQIWWDDDEYYNPALKSRLTISKDTSRNQVFLKIANVDTGDTATYFCARMGDTYWYFDVWGTGTTVAVSS
VL: B6 VL with L4V, A13V, V25L, N32S, I61V, G69K
notes: also called mAb002/cAb002
In the case of B8, the EC50 in assay [2] amounted to 0.274 nM; in the assay with human CD25 on cells [3], 0.1 nM; in assay [4], 0.524 nM.

B9: PR071 (antibody, human IgG1, kappa, V domains shown)
VH: EVQLVQSGSELKKPGASVKVSCKASGYTFTDYYINWVRQAPGQGLEWMAWIFPGNGNTYFNENFKDRVTLTADKFSSTAYMELSSLRSEDTAVYYCARATYDHGGYWYFDVWGQGTTVTVSS
VL: EIVLSQSPATLSLSPGERATLSCRASSSVSHIHWYQQKPGSSPKPWIYATSNLASGVPGRFSGSGSGTSYSLTVSRVEAEDAATYYCQHWNSFTFGGGTKVEIKR
Turning to B9, the “ADCC activity, Multiple … (vs. IgG)” value with human CD25 on cells [1] worked out at 322 fold.

B10: cAb042 (antibody, human IgG1, V domains shown)
VH: QVQLQQSGPELVKSGASVKLSCKASGYTFTTYDINWMKQRPGQGLEWIGWIYPRDGSTKYNAKFKGKATLTEDTSSNTAFMELHSLTSEDSAVYFCARERIYDGSFDYWGQGTTLTVSS
VL: DIVMTQSPSSLSVSAGEKVSMRCKSSQRLFNSRDQKNYLAWYQQKPGQPPKLLIYGASTRESGVPDRFTGSGSGTDFTLTISSVQAEDLAVYYCQNDHIYPLTFGAGTKLELK
notes: also called mAb042/cAb042
Regarding B10, the EC50 in assay [2] came out at 0.224 nM; with human CD25 on cells [3], 0.501 nM; in assay [4], 0.349 nM.

B11: cAb028 (antibody, human IgG1, V domains shown)
VH: EVQLQQSGAELVRPGASVKLSCTASGFNIKNDYVHWVKQRPEQGLEWIGYIDPDNGDTEYASKFLGKATITADTSSNTAYLQLSSLTSEGTAVYYCTTDDTSYGMFACWGLGTLVTVSA
VL: DVLMTQTPLSLPVSLGDQASISCRSSQSIVHSNGNTYLEWYLQKPGQSPKLLIYKVSNRFSGVPDRFSGSGSGTDFTLKISRVEAEDLGVYYCFQGSHVPWTFGGGTKLEIK
notes: also called mAb028/cAb028
Regarding B11, the results for the EC50 (in assay [2]; in the assay with human CD25 on cells [3]; in assay [4]) were 0.344 nM, 0.132 nM and 0.23 nM, respectively.

B12: cAb004 (antibody, human IgG1, V domains shown)
VH: EVQLQQSGAELVRPGASVKLSCTASGFNIKDDYIQWVKQRPEQGLEWIGWIDPENGDTEYASKFQDKATITSDTSSNTAYLQLSSLTSEDTAVYYCAATTFYASNYGFAYWGQGTLVTVSA
VL: B11 VL with L3V, I29L, E39H, K50Q, V83L, Y92F, F94S, G96S, S97T, W101Y
notes: also called mAb004/cAb004
B12: the EC50 worked out at 0.255 nM in assay [2], 0.168 nM in the assay with human CD25 on cells [3] and 0.311 nM in assay [4].

B13: cAb046 (antibody, human IgG1, V domains shown)
VH: EVQLVESGGGLVKPGGSLKLSCAASGFTFSSYAMSWVRQTPEKRLEWVATISEGGSYTYYPDNVKGRFTISRDNARNNLYLQMSHLKSEDTAMYLCVRDNPWFAYWGQGTLVTVST
VL: B11 VL with Q18R, S28N, Y41F, N58K, W101Y
notes: also called mAb046/cAb046
For B13, the concentration for a half-maximal effect (EC50) in assay [2] was 0.355 nM; with human CD25 on cells [3], 0.345 nM; in assay [4], 5.57 nM.

B14: PR058 (antibody, human IgG1, kappa, V domains shown)
VH: EVQLVESGGGLVQPGGSLRLSCAASGFTFSSYAMSWVRQAPGKRLEWVATISEGGSYTYYPDNVKGRFTISRDNSKNTLYLQMNSLRAEDTAVYLCVRDNPWFAYWGQGTLVTVSS
VL: DVLMTQSPLSLPVTPGEPASISCRSSQNIVHSNGNTYLEWFLQKPGQSPKLLIYKVSKRFSGVPDRFSGSGSGTDFTLKISRVEAEDVGVYYCFQGSHVPYTFGGGTKVEIKR
Take B14: the “ADCC activity, Multiple … (vs. IgG)” value in the assay with human CD25 on cells [1] came out at 386 fold.
